From publication PMC9789152 come the findings set out here.

One may read the stoichiometry N as a count of units in the complex or per binding partner.

“And” between values parts separate entries of the source, which are not always exact repeats. Equal values may be shown once.

In experiment [1] the target is S. mutans surface protein antigen I/II (Ag I/II), proline repeat working fragment (Streptococcus mutans UA159). Kind of experiment: cryo-TEM of self-assembly; protein stock (10 mg/mL, pH 3.5) diluted 10 times with 4 mM PBS (pH 7.4 in the methods, pH 8.0 in the results); 10 min assembly reaction, plunge-frozen.
Experiment [2] has as its target recombinant human amelogenin (AmH) (human). Described as above.

As to “S. mutans surface protein antigen I/II (Ag I/II), proline repeat working fragment (domain or fragment)”, the stoichiometry N in experiment [1] was 6 monomers and 10 monomers.

Turning to “recombinant human amelogenin (AmH) (natural protein)”, the stoichiometry N in experiment [2] is 6 monomers and 8 monomers.
